Results reported in patent publication US20040170601A1, “Method of improving the growth performance of an animal” (priority 2001, published 2004).
“And” between values parts separate entries of the source, which are not always exact repeats. Equal entries are not always repeated. “Also recorded” adds a separate entry of the source.

Tests used:
[1] = system: H. parasuis, APP and Swine dysentry; assay: Example 4: deaths and production loss from infectious disease; assay type: in vivo, pigs; conditions: for number of deaths during trial: 20 per group; for deaths (autopsy report summary) / production loss (deaths from infectious disease or weight loss): weaner period
Method: This trial evaluated the capacity of IL-5 to improve growth performance and immunity of pigs by comparing the growth rate and health of weaner pigs (28 day old weaners is Day 0 of the trial and the weaner period continued for 42 days) through to the finisher stage (Days 93 to 113) and slaughter (133 days after commencing the trial). The pigs were administered recombinant porcine cytokine, IL-5, and saline was used as a control, with and without standard weaner medicated water and feed in a commercial piggery environment.
40 pigs per treatment mixed in-groups of 20, with 4 replicates containing standard medicated water and feed and 4 replicates without medicated feed or water.
These are possibly a reflection of resistance to infections as all pigs were subjected to a severe exposure of pathogens (deaths occurred from H. parasuis “Glasser's”, APP and Swine dysentry).
The production loss in terms of deaths from infectious disease or weight loss as measured by weekly weighing is shown in FIG. 13. No deaths occurred in the IL-5 medicated group (FIG. 13), a factor that influenced the positive effect of IL-5 on increasing total group weight as described above (FIG. 10). The majority of deaths also included prior weight loss, but were recorded as deaths only. The antibiotic medicated groups had reduced numbers of pigs that lost weight during 1 or more weeks during the weaner period compared to the un-medicated groups. The first week after weaning was where the majority (>80%) of pigs lost weight.

[2] = system: eosinophils; assay: Example 11: IL-5 and IL-3 on eosinophil production; assay type: in vivo, pigs
Text: The aim of this example was to determine if the effects of IL-3 and IL-5 act synergistically to increase eosinophil levels and antibody production.
As IL-3 stimulates the proliferation of pre-active B cells prior to the effects of IL-5, it was believed that administration of both IL-3 and IL-5 would have a greater impact on eosinophil production than the administration of either cytokine alone. An experiment was undertaken using pigs raised under clean PC2 conditions with raised floors. There were 5 treatments with 6 pigs per treatment. Pigs were 5-6 weeks of age. The animals were injected intramuscularly on days 0, 3, 7 and 10 of the experiment with either recombinant cytokines or saline. The treatments include IL-5 and IL-3 alone and given either together at the same time at different sites or to the same animal but with IL-3 being administered one week before IL-5. The treatments were as follows:
Group 3—100 μg IL-3+100 μg IL-5 (separate sites)
The pigs were bled 4 times per week for the first 2 weeks and once per week for the following 2 weeks and haematology measured using a CellDyn machine. Sera were collected also each week and tested for antibody levels.

[3] = system: eosinophils; assay: Example 3: mode of administration of IL-5 (protein or DNA) on eosinophils; assay type: in vivo, pigs; conditions: six times over 2 weeks
Method: This trial compared the delivery of IL-5 as recombinant protein or by DNA using different routes of administration. Each treatment was administered six times over 2 weeks (Days 0, 1, 3, 6, 8, 10).
6 pigs/treatment group. Blood haematology measured.
(§1) The experiment was conducted using medicated feed Barastoc EziWean 150 then Bunge Grolean CREEP ad libitum in an experimental environment (PC2 containment facilities).
Blood total and differential counts were performed using a CellDyn 3700 haematology machine.

[4] = system: eosinophils; assay: Example 1: recombinant IL-5 and IL-5 DNA on eosinophil numbers in the blood of pigs; assay type: in vivo; conditions: recombinant IL-5 100 μg IM on 1 or 2 consecutive days, up to 12 days after treatment
Method: This trial compared the effects of recombinant porcine IL-5 protein and DNA delivered porcine IL-5 on eosinophil numbers in the blood of pigs.
6 pigs per treatment, approximately 7-8 weeks of age (weaners), mean weight of approx. 15 kg.
as §1
Recombinant IL-5 was expressed in E. coli and purified using a GST tag system. (See, for example, Smith, D. B and Johnson, K. S. (1988), Gene, 67:31-40). IL-5 was cleaved from the GST tag, purified and tested in bioassays to confirm activity.
IL-5 cDNA (including the signal sequence) was cloned into the pCI DNA vector. DNA was purified using the Qiagen Giga Prep kit (Qiagen Inc. USA).
Total white cells and eosinophils were counted from slides.
Pre-bleed for haematology and dose with all treatments (1, 2, 3, 4, 5 as shown above)
(§2) 8 hrs later, bleed for haematology

[5] = system: eosinophils; assay: Example 2: high dose and multiple dose IL-5 on eosinophil numbers in blood; assay type: in vivo, pigs; conditions: rec.IL-5 IM 100 μg x1/x2/x4 or 500 μg x1
Method: This trial compared 2 doses of recombinant IL-5 (100 μg/500 μg) and compared multiple injections (x1/x2/x4) of one dose (100 μg) to elevate eosinophil numbers.
The experiment was conducted using medicated feed Barastoc EziWean 150 then Bunge Grolean CREEP ad libitum in an experimental environment (PC2 containment facilities). Blood total and differential counts were performed using a CellDyn 3700 haematology machine.
as §2

B1: interleukin 5 (protein, UniProt Q9MYM5 22-134, looked up)
Interleukin-5: VENTMNRLVAETLTLLSIHRTLLIGDGNLMISTPVHTNHQLCIEEVFQGIDTLKNQTARGDAVEKLFQNLSLIKEYIDRQKKNCGGERWRVTQFLDYLQVFLGVINTEWTMES
notes: recombinant porcine IL-5 protein expressed in E. coli; + / − = with / without antibiotic medicated feed and water, +p = weaner period only
- number of deaths during trial ([1]; Final (Day 133), medicated): 0
- number of deaths during trial ([1]; Final (Day 133), un-medicated): 3
- number of deaths during trial ([1]; Weaner (Day 42), medicated): 0
- number of deaths during trial ([1]; Weaner (Day 42), un-medicated): 2
- condition and health of pigs ([1]; medicated): excellent condition and health compared to other groups
- deaths (autopsy report summary) ([1]; medicated): No deaths or intervention
- production loss (deaths from infectious disease or weight loss) ([1]; medicated): no pig from the medicated IL-5 treatment group lost weight or died from infectious disease
- production loss (deaths from infectious disease or weight loss) ([1]; un-medicated): reduced production loss
- deaths (autopsy report summary) ([1]; unmedicated): 2x H. parasuis
- eosinophil percentage of WBC relative to the original value ([2]; after 4 injections): approximately 10 times
- eosinophils as a percent of white blood cells ([2]; single cytokine 100 μg IM days 0, 3, 7, 10): significant increase in eosinophil levels; also recorded: dramatically increased circulating eosinophil cells
- circulating eosinophil numbers (percentage of WBC) ([3]; 100 μg rec.IL-5 IM hind leg, listed as Recombinant IL-5): elevated circulating eosinophil numbers
- circulating eosinophil numbers (percentage of WBC) ([3]; 100 μg rec.IL-5 IM hind leg, listed as recombinant IL-5): increase in the duration and level of eosinophils in blood
- circulating eosinophil numbers (percentage of WBC) ([3]; 100 μg rec.IL-5 intranasal spray): slight increases on eosinophil numbers compared to the DNA control but not statistically significant
- percentage eosinophils of white blood cells (WBC) [4]: transient (several days)
- percentage eosinophils of white blood cells (WBC) ([4]; listed as recombinant IL-5): sustained increase in eosinophil numbers in blood over several days; also recorded: two doses being more effective than one dose; also recorded: more effective than DNA in increasing eosinophil numbers
- average percentage eosinophil of WBC over 11 days (area under the curve) [5]: increased eosinophil numbers in blood and higher dose and multiple doses were statistically significant and 4 injections of 100 μg (Days 0, 1, 4, 7) being more effective than a single injection of a higher single dose (500 μg)
